Starred links: 1 amine or outer side, 2 acyl side, 3 side chain; linkers in the order of their positions; H or OH if unused. Non-standard residues stand in square brackets, D forms with d. No end group written: not given here. *: point of attachment. Ala(piperidin-4-yl) = O=C([C@H](CC1CCN([*:3])CC1)N[*:1])[*:2]; Ser(Me) = methylated serine, COC[C@H](N[*:1])C(=O)[*:2]; Tyr(3-F) = N[C@@H](Cc1ccc(O)c(F)c1)C(=O)O; Ala(cPr) = N[C@@H](CC1CC1)C(=O)O; 4Pal = N[C@@H](Cc1ccncc1)C(=O)O; Cha = N[C@@H](CC1CCCCC1)C(=O)O; Gly(cPr) = N[C@H](C(=O)O)C1CC1; 4Amb = NCc1ccc(C(=O)O)cc1; Isobutyryl = CC(C)C(=O)*; Iva = CC[C@](C)(N)C(=O)O; NMeA = CN[C@@H](C)C(=O)O; Abu = CC[C@H](N)C(=O)O; Aib = CC(C)(N)C(=O)O
Columns and labels:
human Y2 receptor [1] = target: T1, human Y2 receptor (Homo sapiens, UniProt P49146); test: Receptor Binding Assay (RBA) for Human Y2, [125I]-PYY displacement on hY2R/CHO membrane fraction; settings: IC50 of test compound/IC50 of PYY(3-36) (PYY(3-36) taken as 1)
T1 construct: expressed in transfected cells; membrane fraction
T1 sequence (P49146 1-381): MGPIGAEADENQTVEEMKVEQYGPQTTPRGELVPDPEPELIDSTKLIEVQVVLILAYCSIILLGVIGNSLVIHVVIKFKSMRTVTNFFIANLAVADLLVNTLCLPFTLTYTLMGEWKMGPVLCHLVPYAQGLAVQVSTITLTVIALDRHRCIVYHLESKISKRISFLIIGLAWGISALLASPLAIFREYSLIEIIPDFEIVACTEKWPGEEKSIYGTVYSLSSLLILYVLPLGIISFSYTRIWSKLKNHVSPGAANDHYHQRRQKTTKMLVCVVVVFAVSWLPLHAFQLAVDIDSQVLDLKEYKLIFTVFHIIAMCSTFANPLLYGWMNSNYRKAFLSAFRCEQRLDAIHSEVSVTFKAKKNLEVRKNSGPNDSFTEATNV
In short: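 hY2R stably expressed in CHO/dhfr− cells; membrane fraction prepared from cells disrupted in 10 mM NaHCO3, 5 mM EDTA buffer with protease inhibitors. Binding read as displacement of [125I]-PYY.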

human Y2 receptor [2] = target: T1, human Y2 receptor; test: Human Y2 Receptor G Protein Binding Assay (GBA), [35S]GTPγS; format: biochemical; settings: EC50 of test compound/EC50 of PYY(3-36) (PYY3-36 taken as 1), hY2R/CHO membrane fraction
In short: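 Agonism measured as [35S]GTPγS binding, read by GF/C filtration and scintillation counting after 120 min at room temperature, using human Y2 membranes at 1 μg protein/mL in pH 7.4 Tris/MgCl2/NaCl/GDP buffer. Compound serially diluted 100 μM–1 nM; EC50 normalized to PYY(3-36) (ratio = compound/PYY).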

Substance	RBA IC50 Ratio (human Y2 receptor [1])	GBA EC50 Ratio (human Y2 receptor [2])
Isobutanoyl-[Abu26, Cha27,28, Aib31, Tyr(3F)36]-PYY(25-36) (Isobutyryl-R[Abu][Cha][Cha]NL[Aib]TRQR[Tyr(3-F)]-NH2; SMILES CC[C@H](NC(=O)[C@H](CCCNC(=N)N)NC(=O)C(C)C)C(=O)N[C@@H](CC1CCCCC1)C(=O)N[C@@H](CC1CCCCC1)C(=O)N[C@@H](CC(N)=O)C(=O)N[C@@H](CC(C)C)C(=O)NC(C)(C)C(=O)N[C@H](C(=O)N[C@@H](CCCNC(=N)N)C(=O)N[C@@H](CCC(N)=O)C(=O)N[C@@H](CCCNC(=N)N)C(=O)N[C@@H](Cc1ccc(O)c(F)c1)C(N)=O)[C@@H](C)O) [compound No. 87]	26	20
4-Aminomethylbenzoyl-[Ala26, Ile28, VAl31]-PYY(25-36) ([4Amb]RAYINLVTRQRY-NH2; N-terminus assumed; SMILES CC[C@H](C)[C@H](NC(=O)[C@H](Cc1ccc(O)cc1)NC(=O)[C@H](C)NC(=O)[C@H](CCCNC(=N)N)NC(=O)c1ccc(CN)cc1)C(=O)N[C@@H](CC(N)=O)C(=O)N[C@@H](CC(C)C)C(=O)N[C@H](C(=O)N[C@H](C(=O)N[C@@H](CCCNC(=N)N)C(=O)N[C@@H](CCC(N)=O)C(=O)N[C@@H](CCCNC(=N)N)C(=O)N[C@@H](Cc1ccc(O)cc1)C(N)=O)[C@@H](C)O)C(C)C) [compound No. 39]	7.2	4.0
Isobutanoyl-[Abu26, Cha27,28,36, Ala(cPr)30, Aib31]-PYY(25-36) (Isobutyryl-R[Abu][Cha][Cha]N[Ala(cPr)][Aib]TRQR[Cha]-NH2; SMILES CC[C@H](NC(=O)[C@H](CCCNC(=N)N)NC(=O)C(C)C)C(=O)N[C@@H](CC1CCCCC1)C(=O)N[C@@H](CC1CCCCC1)C(=O)N[C@@H](CC(N)=O)C(=O)N[C@@H](CC1CC1)C(=O)NC(C)(C)C(=O)N[C@H](C(=O)N[C@@H](CCCNC(=N)N)C(=O)N[C@@H](CCC(N)=O)C(=O)N[C@@H](CCCNC(=N)N)C(=O)N[C@@H](CC1CCCCC1)C(N)=O)[C@@H](C)O) [compound No. 80]	17	12
Ac-[D-Pro24, Pya(4)26, Ala(4Pip)27, Aib28,31, Lys30, Cha36]-PYY(23-36) [compound No. 309] (Ac-S[dP]R[4Pal][Ala(piperidin-4-yl)][Aib]NK[Aib]TRQR[Cha]-NH2; SMILES CC(=O)N[C@@H](CO)C(=O)N1CCC[C@@H]1C(=O)N[C@@H](CCCNC(=N)N)C(=O)N[C@@H](Cc1ccncc1)C(=O)N[C@@H](CC1CCNCC1)C(=O)NC(C)(C)C(=O)N[C@@H](CC(N)=O)C(=O)N[C@@H](CCCCN)C(=O)NC(C)(C)C(=O)N[C@H](C(=O)N[C@@H](CCCNC(=N)N)C(=O)N[C@@H](CCC(N)=O)C(=O)N[C@@H](CCCNC(=N)N)C(=O)N[C@@H](CC1CCCCC1)C(N)=O)[C@@H](C)O)	3.8	3.9
Isobutanoyl-[Abu26, Cha27,36, Gly(cPr)28, Aib31]-PYY(25-36) (Isobutyryl-R[Abu][Cha][Gly(cPr)]NL[Aib]TRQR[Cha]-NH2; SMILES CC[C@H](NC(=O)[C@H](CCCNC(=N)N)NC(=O)C(C)C)C(=O)N[C@@H](CC1CCCCC1)C(=O)N[C@H](C(=O)N[C@@H](CC(N)=O)C(=O)N[C@@H](CC(C)C)C(=O)NC(C)(C)C(=O)N[C@H](C(=O)N[C@@H](CCCNC(=N)N)C(=O)N[C@@H](CCC(N)=O)C(=O)N[C@@H](CCCNC(=N)N)C(=O)N[C@@H](CC1CCCCC1)C(N)=O)[C@@H](C)O)C1CC1) [compound No. 93]	52	41
Ac-[Arg23, D-Pro24, Iva25, Pya(4)26, Cha27,36, Aib28,31, Lys30]-PYY(23-36) (Ac-R[dP][Iva][4Pal][Cha][Aib]NK[Aib]TRQR[Cha]-NH2; SMILES CC[C@](C)(NC(=O)[C@H]1CCCN1C(=O)[C@H](CCCNC(=N)N)NC(C)=O)C(=O)N[C@@H](Cc1ccncc1)C(=O)N[C@@H](CC1CCCCC1)C(=O)NC(C)(C)C(=O)N[C@@H](CC(N)=O)C(=O)N[C@@H](CCCCN)C(=O)NC(C)(C)C(=O)N[C@H](C(=O)N[C@@H](CCCNC(=N)N)C(=O)N[C@@H](CCC(N)=O)C(=O)N[C@@H](CCCNC(=N)N)C(=O)N[C@@H](CC1CCCCC1)C(N)=O)[C@@H](C)O) [compound No. 321]	0.88	0.78

More lines, now with the values ahead:

RBA IC50 Ratio (human Y2 receptor [1])	GBA EC50 Ratio (human Y2 receptor [2])	Substance
2.5	2.4	Ac-[D-Pro24, Pya(4)26, Cha27,36, Aib28,31, Trp30]-PYY(23-36) (Ac-S[dP]R[4Pal][Cha][Aib]NW[Aib]TRQR[Cha]-NH2; SMILES CC(=O)N[C@@H](CO)C(=O)N1CCC[C@@H]1C(=O)N[C@@H](CCCNC(=N)N)C(=O)N[C@@H](Cc1ccncc1)C(=O)N[C@@H](CC1CCCCC1)C(=O)NC(C)(C)C(=O)N[C@@H](CC(N)=O)C(=O)N[C@@H](Cc1c[nH]c2ccccc12)C(=O)NC(C)(C)C(=O)N[C@H](C(=O)N[C@@H](CCCNC(=N)N)C(=O)N[C@@H](CCC(N)=O)C(=O)N[C@@H](CCCNC(=N)N)C(=O)N[C@@H](CC1CCCCC1)C(N)=O)[C@@H](C)O) [compound No. 205]
0.85	2.1	Ac-[D-Pro24, Pya(4)26, Cha27,36, Aib28, Lys30, Iva31]-PYY(23-36) (Ac-S[dP]R[4Pal][Cha][Aib]NK[Iva]TRQR[Cha]-NH2; SMILES CC[C@](C)(NC(=O)[C@H](CCCCN)NC(=O)[C@H](CC(N)=O)NC(=O)C(C)(C)NC(=O)[C@H](CC1CCCCC1)NC(=O)[C@H](Cc1ccncc1)NC(=O)[C@H](CCCNC(=N)N)NC(=O)[C@H]1CCCN1C(=O)[C@H](CO)NC(C)=O)C(=O)N[C@H](C(=O)N[C@@H](CCCNC(=N)N)C(=O)N[C@@H](CCC(N)=O)C(=O)N[C@@H](CCCNC(=N)N)C(=O)N[C@@H](CC1CCCCC1)C(N)=O)[C@@H](C)O) [compound No. 231]
5.2	3.8	Ac-[Ser(Me)23, D-Pro24, Abu26, Cha27,28,36, Aib31]-PYY(23-36) (Ac-[Ser(Me)][dP]R[Abu][Cha][Cha]NL[Aib]TRQR[Cha]-NH2; SMILES CC[C@H](NC(=O)[C@H](CCCNC(=N)N)NC(=O)[C@H]1CCCN1C(=O)[C@H](COC)NC(C)=O)C(=O)N[C@@H](CC1CCCCC1)C(=O)N[C@@H](CC1CCCCC1)C(=O)N[C@@H](CC(N)=O)C(=O)N[C@@H](CC(C)C)C(=O)NC(C)(C)C(=O)N[C@H](C(=O)N[C@@H](CCCNC(=N)N)C(=O)N[C@@H](CCC(N)=O)C(=O)N[C@@H](CCCNC(=N)N)C(=O)N[C@@H](CC1CCCCC1)C(N)=O)[C@@H](C)O) [compound No. 106]
2.7	1.9	Ac-[Glu23, D-Pro24, Pya(4)26, Cha27,36, Aib28,31, Lys30]-PYY(23-36) (Ac-E[dP]R[4Pal][Cha][Aib]NK[Aib]TRQR[Cha]-NH2; SMILES CC(=O)N[C@@H](CCC(=O)O)C(=O)N1CCC[C@@H]1C(=O)N[C@@H](CCCNC(=N)N)C(=O)N[C@@H](Cc1ccncc1)C(=O)N[C@@H](CC1CCCCC1)C(=O)NC(C)(C)C(=O)N[C@@H](CC(N)=O)C(=O)N[C@@H](CCCCN)C(=O)NC(C)(C)C(=O)N[C@H](C(=O)N[C@@H](CCCNC(=N)N)C(=O)N[C@@H](CCC(N)=O)C(=O)N[C@@H](CCCNC(=N)N)C(=O)N[C@@H](CC1CCCCC1)C(N)=O)[C@@H](C)O) [compound No. 209]
1.1	1.0	Ac-[Lys22,30, D-Pro24, Pya(4)26, Cha27,36, Aib28,31]-PYY(22-36) (Ac-KS[dP]R[4Pal][Cha][Aib]NK[Aib]TRQR[Cha]-NH2; SMILES CC(=O)N[C@@H](CCCCN)C(=O)N[C@@H](CO)C(=O)N1CCC[C@@H]1C(=O)N[C@@H](CCCNC(=N)N)C(=O)N[C@@H](Cc1ccncc1)C(=O)N[C@@H](CC1CCCCC1)C(=O)NC(C)(C)C(=O)N[C@@H](CC(N)=O)C(=O)N[C@@H](CCCCN)C(=O)NC(C)(C)C(=O)N[C@H](C(=O)N[C@@H](CCCNC(=N)N)C(=O)N[C@@H](CCC(N)=O)C(=O)N[C@@H](CCCNC(=N)N)C(=O)N[C@@H](CC1CCCCC1)C(N)=O)[C@@H](C)O) [compound No. 272]
6.1	5.1	Ac-[D-Ser23, MeAla24, Cha27,28,36, Aib31]-PYY(23-36) (Ac-[dS][NMeA]RH[Cha][Cha]NL[Aib]TRQR[Cha]-NH2; SMILES CC(=O)N[C@H](CO)C(=O)N(C)[C@@H](C)C(=O)N[C@@H](CCCNC(=N)N)C(=O)N[C@@H](Cc1c[nH]cn1)C(=O)N[C@@H](CC1CCCCC1)C(=O)N[C@@H](CC1CCCCC1)C(=O)N[C@@H](CC(N)=O)C(=O)N[C@@H](CC(C)C)C(=O)NC(C)(C)C(=O)N[C@H](C(=O)N[C@@H](CCCNC(=N)N)C(=O)N[C@@H](CCC(N)=O)C(=O)N[C@@H](CCCNC(=N)N)C(=O)N[C@@H](CC1CCCCC1)C(N)=O)[C@@H](C)O) [compound No. 109]
